In the Human Domainome abundance scans (Beltran et al. 2025):
± gives the uncertainty stated by the source.

B1: Segment polarity protein dishevelled homolog DVL-3, residues 2 to 81; numbered along this chain, Q92997 (parent)
chain: GETKIIYHLDGQETPYLVKLPLPAERVTLADFKGVLQRPSYKFFFKSMDDDFGVVKEEISDDNAKLPCFNGRVVSWLVSA

Variants of: B1
Test: abundance fitness (aPCA) (normalised: wild type 0, dead -1); higher = more abundant; growth selection in yeast, the domain comes from the species named
Settings: Homo sapiens

Variant | abundance fitness
GETKIIYHLDGQETPYLVKLPLPAERVTLADFEGVLQRPSYKFFFKSMDDDFGVVKEEISDDNAKLPCFNGRVVSWLVSA [K33E] | -0.672 ± 0.12
GETKIIYHLDGQETPYLVKLPLPAERVTLADFHGVLQRPSYKFFFKSMDDDFGVVKEEISDDNAKLPCFNGRVVSWLVSA [K33H] | -0.631 ± 0.24
GETKIIYHLDGQETPYLVKLPLPAERVTLADFWGVLQRPSYKFFFKSMDDDFGVVKEEISDDNAKLPCFNGRVVSWLVSA [K33W] | -0.52 ± 0.091
GETKIIYHLDGQETPYLVKLPLPAERVTLADFTGVLQRPSYKFFFKSMDDDFGVVKEEISDDNAKLPCFNGRVVSWLVSA [K33T] | -0.618 ± 0.13
GETKIIYHLDGQETPYLVKLPLPAERVTLADFPGVLQRPSYKFFFKSMDDDFGVVKEEISDDNAKLPCFNGRVVSWLVSA [K33P] | -1.13 ± 0.24
GETKIIYHLDGQETPYLVKLPLPAERVTLADFQGVLQRPSYKFFFKSMDDDFGVVKEEISDDNAKLPCFNGRVVSWLVSA [K33Q] | -0.94 ± 0.21
GETKIIYHLDGQETPYLVKLPLPAERVTLADFNGVLQRPSYKFFFKSMDDDFGVVKEEISDDNAKLPCFNGRVVSWLVSA [K33N] | -0.087 ± 0.14
GETKIIYHLDGQETPYLVKLPLPAERVTLADFVGVLQRPSYKFFFKSMDDDFGVVKEEISDDNAKLPCFNGRVVSWLVSA [K33V] | -0.762 ± 0.11
GETKIIYHLDGQETPYLVKLPLPAERVTLADFCGVLQRPSYKFFFKSMDDDFGVVKEEISDDNAKLPCFNGRVVSWLVSA [K33C] | -0.589 ± 0.16
GETKIIYHLDGQETPYLVKLPLPAERVTLADFSGVLQRPSYKFFFKSMDDDFGVVKEEISDDNAKLPCFNGRVVSWLVSA [K33S] | -0.527 ± 0.091
GETKIIYHLDGQETPYLVKLPLPAERVTLADFGGVLQRPSYKFFFKSMDDDFGVVKEEISDDNAKLPCFNGRVVSWLVSA [K33G] | -0.704 ± 0.078
GETKIIYHLDGQETPYLVKLPLPAERVTLADWKGVLQRPSYKFFFKSMDDDFGVVKEEISDDNAKLPCFNGRVVSWLVSA [F32W] | -0.61 ± 0.1
GETKIIYHLDGQETPYLVKLPLPAERVTLADGKGVLQRPSYKFFFKSMDDDFGVVKEEISDDNAKLPCFNGRVVSWLVSA [F32G] | -0.916 ± 0.1
GETKIIYHLDGQETPYLVKLPLPAERVTLADIKGVLQRPSYKFFFKSMDDDFGVVKEEISDDNAKLPCFNGRVVSWLVSA [F32I] | -0.469 ± 0.16
GETKIIYHLDGQETPYLVKLPLPAERVTLADEKGVLQRPSYKFFFKSMDDDFGVVKEEISDDNAKLPCFNGRVVSWLVSA [F32E] | -0.649 ± 0.11
GETKIIYHLDGQETPYLVKLPLPAERVTLADQKGVLQRPSYKFFFKSMDDDFGVVKEEISDDNAKLPCFNGRVVSWLVSA [F32Q] | -0.855 ± 0.19
GETKIIYHLDGQETPYLVKLPLPAERVTLADHKGVLQRPSYKFFFKSMDDDFGVVKEEISDDNAKLPCFNGRVVSWLVSA [F32H] | -0.447 ± 0.23
GETKIIYHLDGQETPYLVKLPLPAERVTLADYKGVLQRPSYKFFFKSMDDDFGVVKEEISDDNAKLPCFNGRVVSWLVSA [F32Y] | -0.544 ± 0.18

Variant | abundance fitness
GETKIIYHLDGQETPYLVKLPLPAERVTLADPKGVLQRPSYKFFFKSMDDDFGVVKEEISDDNAKLPCFNGRVVSWLVSA [F32P] | -0.686 ± 0.18
GETKIIYHLDGQETPYLVKLPLPAERVTLADLKGVLQRPSYKFFFKSMDDDFGVVKEEISDDNAKLPCFNGRVVSWLVSA [F32L] | -0.337 ± 0.07
GETKIIYHLDGQETPYLVKLPLPAERVTLADMKGVLQRPSYKFFFKSMDDDFGVVKEEISDDNAKLPCFNGRVVSWLVSA [F32M] | -0.624 ± 0.14
GETKIIYHLDGQETPYLVKLPLPAERVTLADDKGVLQRPSYKFFFKSMDDDFGVVKEEISDDNAKLPCFNGRVVSWLVSA [F32D] | -0.688 ± 0.23
GETKIIYHLDGQETPYLVKLPLPAERVTLADRKGVLQRPSYKFFFKSMDDDFGVVKEEISDDNAKLPCFNGRVVSWLVSA [F32R] | -0.543 ± 0.073
GETKIIYHLDGQETPYLVKLPLPAERVTLADNKGVLQRPSYKFFFKSMDDDFGVVKEEISDDNAKLPCFNGRVVSWLVSA [F32N] | -1.28 ± 0.45
GETKIIYHLDGQETPYLVKLPLPAERVTLADKKGVLQRPSYKFFFKSMDDDFGVVKEEISDDNAKLPCFNGRVVSWLVSA [F32K] | -1.01 ± 0.21
GETKIIYHLDGQETPYLVKLPLPAERVTLADAKGVLQRPSYKFFFKSMDDDFGVVKEEISDDNAKLPCFNGRVVSWLVSA [F32A] | -0.622 ± 0.1
GETKIIYHLDGQETPYLVKLPLPAERVTLADVKGVLQRPSYKFFFKSMDDDFGVVKEEISDDNAKLPCFNGRVVSWLVSA [F32V] | -0.819 ± 0.1
GETKIIYHLDGQETPYLVKLPLPAERVTLADTKGVLQRPSYKFFFKSMDDDFGVVKEEISDDNAKLPCFNGRVVSWLVSA [F32T] | -0.598 ± 0.13
GETKIIYHLDGQETPYLVKLPLPAERVTLYDFKGVLQRPSYKFFFKSMDDDFGVVKEEISDDNAKLPCFNGRVVSWLVSA [A30Y] | -0.468 ± 0.16
GETKIIYHLDGQETPYLVKLPLPAERVTLVDFKGVLQRPSYKFFFKSMDDDFGVVKEEISDDNAKLPCFNGRVVSWLVSA [A30V] | -0.742 ± 0.098
GETKIIYHLDGQETPYLVKLPLPAERVTLTDFKGVLQRPSYKFFFKSMDDDFGVVKEEISDDNAKLPCFNGRVVSWLVSA [A30T] | -0.795 ± 0.15
GETKIIYHLDGQETPYLVKLPLPAERVTLQDFKGVLQRPSYKFFFKSMDDDFGVVKEEISDDNAKLPCFNGRVVSWLVSA [A30Q] | -0.465 ± 0.1
GETKIIYHLDGQETPYLVKLPLPAERVTLSDFKGVLQRPSYKFFFKSMDDDFGVVKEEISDDNAKLPCFNGRVVSWLVSA [A30S] | -0.261 ± 0.062
GETKIIYHLDGQETPYLVKLPLPAERVTLRDFKGVLQRPSYKFFFKSMDDDFGVVKEEISDDNAKLPCFNGRVVSWLVSA [A30R] | 0.034 ± 0.041
GETKIIYHLDGQETPYLVKLPLPAERVTLWDFKGVLQRPSYKFFFKSMDDDFGVVKEEISDDNAKLPCFNGRVVSWLVSA [A30W] | -0.517 ± 0.09
